Assay [1] deals with HLA-A*31:01. In words: IEDB peptide-MHC binding, purified MHC/competitive/fluorescence; filed as Kd, often an IC50 or EC50 that approximates it; ≥ and ≤ were set here for values at or beyond the usual limits of such assays.
The target of assay [2] is HLA-A*11:01. The experiment in a line: IEDB peptide-MHC binding, purified MHC/direct/fluorescence; filed as Kd, often an IC50 or EC50 that approximates it; ≥ and ≤ were set here for values at or beyond the usual limits of such assays.
For assay [3], the target named is HLA-A*03:01. The description is as above.
For assay [4], the target named is HLA-A*03:01. In words: IEDB peptide-MHC binding, purified MHC/competitive/fluorescence; filed as Kd, often an IC50 or EC50 that approximates it; ≥ and ≤ were set here for values at or beyond the usual limits of such assays.
The target of assay [5] is HLA-B*18:01. Described as above.
Assay [6] deals with HLA-A*69:01. The description is as above.
Assay [7] deals with HLA-B*39:01. Described as above.
The target of assay [8] is HLA-A*02:01. Described as above.
The target of assay [9] is HLA-B*46:01. Described as above.
In assay [10] the target is HLA-B*51:01. The description is as above.
For assay [11], the target named is HLA-A*26:01. The assay is described as above.
Assay [12] has as its target HLA-B*57:01. The description is as above.
The target of assay [13] is HLA-B*27:03. The assay is described as above.
Assay [14] deals with HLA-A*23:01. In words: IEDB peptide-MHC binding, purified MHC/direct/fluorescence; filed as Kd, often an IC50 or EC50 that approximates it; ≥ and ≤ were set here for values at or beyond the usual limits of such assays.
Assay [15] addresses HLA-A*02:16. Described as above.
The target of assay [16] is HLA-A*02:19. The assay is described as above.
In assay [17] the target is HLA-A*24:03. The description is as above.
The target of assay [18] is HLA-A*02:11. The description is as above.
Assay [19] addresses HLA-A*02:12. The assay is described as above.
For assay [20], the target named is HLA-A*02:03. The description is as above.
Assay [21] concerns the target HLA-A*29:02. The assay is described as above.
In assay [22] the target is HLA-A*68:02. Described as above.
Assay [23] concerns the target HLA-B*15:17. The experiment in a line: IEDB peptide-MHC binding, purified MHC/competitive/fluorescence; filed as Kd, often an IC50 or EC50 that approximates it; ≥ and ≤ were set here for values at or beyond the usual limits of such assays.
Assay [24] has as its target HLA-B*15:01. The description is as above.
Assay [25] deals with HLA-A*01:01. In words: IEDB peptide-MHC binding, purified MHC/direct/fluorescence; filed as Kd, often an IC50 or EC50 that approximates it; ≥ and ≤ were set here for values at or beyond the usual limits of such assays. The following applies: source organism: Reston ebolavirus.
[26] abbreviates: source organism: Burkholderia mallei.
[27] abbreviates: source organism: dengue virus type 1.
Setting [28] is: source organism: Escherichia coli 536.
Where [29] appears, read: source organism: Encephalitozoon cuniculi GB-M1.
[30] abbreviates: source organism: Vibrio vulnificus YJ016.
The mark [31] stands for this setting: source organism: Toxoplasma gondii.
The mark [32] stands for this setting: source organism: Listeria welshimeri serovar 6b str. SLCC5334.
Setting [33] is: source organism: Zaire ebolavirus.
Setting [34] is: source organism: Reston ebolavirus.

Take VLDCRTAFK: the Kd was determined as 772 nM in assay [1] (source organism: Yellow fever virus) and 109 nM in [2] (source organism: Yellow fever virus 17D).

For the sequence TGHPWITFK, the dissociation constant (Kd) in assay [1] (source organism: Cupriavidus metallidurans CH34) came to 48.2 nM; in [3] (setting [26]), 945 nM; in assay [2] (setting [26]), 116 nM.

Consider SSADLSLEK, for which the equilibrium dissociation constant (Kd) is at least 20000 nM in assay [1] (setting [27]) and 2.7 nM in [2] (setting [27]).

For AVIVWLLLR, the values for the dissociation constant Kd in [1] (setting [28]) and in assay [4] (setting [28]) were 743 nM and at least 20000 nM, respectively.

As to EAYCALLCK, the Kd in assay [5] (setting [29]), in [6] (setting [29]), in assay [7] (setting [29]), in assay [8] (setting [29]), in assay [9] (setting [29]) and in assay [10] (setting [29]) was at least 20 µM each time. Further, the Kd in assay [11] (setting [29]), in assay [12] (setting [29]), in [13] (setting [29]), in assay [14] (setting [29]), in [15] (setting [29]) and in assay [16] (setting [29]) was at least 20 µM each time. Further, the Kd in [3] (setting [29]) is at least 20000 nM; in assay [17] (setting [29]) it was at least 20 µM; in [2] (setting [29]), at least 20000 nM; in assay [18] (setting [29]), at least 20 µM; in assay [19] (setting [29]), at least 20 µM; in assay [20] (setting [29]) it was at least 20 µM. The equilibrium dissociation constant (Kd) in assay [21] (setting [29]) is at least 20 µM.

Regarding TSCAPMMQK, the dissociation constant (Kd) in assay [5] (setting [30]), in assay [6] (setting [30]), in assay [7] (setting [30]), in assay [8] (setting [30]), in [9] (setting [30]) and in [10] (setting [30]) was at least 20 µM throughout. Moreover, the Kd in assay [11] (setting [30]), in assay [12] (setting [30]), in assay [13] (setting [30]), in assay [14] (setting [30]), in assay [15] (setting [30]) and in [22] (setting [30]) was at least 20 µM in each case. The dissociation constant (Kd) in assay [16] (setting [30]) is at least 20 µM; in [17] (setting [30]) it was at least 20 µM; in assay [2] (setting [30]), 6 nM; in assay [18] (setting [30]) it was at least 20 µM; in assay [19] (setting [30]), at least 20 µM; in assay [20] (setting [30]), at least 20 µM.

For the sequence VSSHKGWAK, the dissociation constant Kd in assay [6] (setting [31]), in assay [7] (setting [31]), in assay [8] (setting [31]), in [9] (setting [31]), in assay [10] (setting [31]) and in assay [11] (setting [31]) was at least 20 µM in each case. Also, the equilibrium dissociation constant (Kd) in assay [12] (setting [31]), in assay [13] (setting [31]), in assay [23] (setting [31]), in assay [14] (setting [31]), in assay [15] (setting [31]) and in assay [22] (setting [31]) was at least 20 µM throughout. For the same sequence, the Kd in assay [16] (setting [31]) was at least 20 µM; in [3] (setting [31]), at least 20000 nM; in [17] (setting [31]), at least 20 µM; in assay [2] (setting [31]), 2 nM; in assay [18] (setting [31]), at least 20 µM; in assay [19] (setting [31]), at least 20 µM. Also, the dissociation constant Kd in [20] (setting [31]) is at least 20 µM.

Turning to KVGHVGLYR, the dissociation constant (Kd) in assay [1] (setting [32]) came out at 19.6 nM; in assay [4] (setting [32]), 46 nM.

For LSDAARLFL, the equilibrium dissociation constant (Kd) in assay [5] (setting [33]), in [6] (setting [33]), in assay [7] (setting [33]), in [8] (setting [33]), in assay [24] (setting [33]) and in assay [9] (setting [33]) was at least 20 µM in each case. Also, the Kd in assay [10] (setting [33]), in assay [11] (setting [33]), in [12] (setting [33]), in [13] (setting [33]), in assay [14] (setting [33]) and in assay [15] (setting [33]) was at least 20 µM in each case. Moreover, the Kd in assay [22] (setting [33]) is at least 20 µM; in [16] (setting [33]) it was at least 20 µM; in assay [3] (setting [33]), at least 20000 nM; in assay [17] (setting [33]) it was at least 20 µM; in assay [18] (setting [33]) it was at least 20 µM; in [19] (setting [33]), at least 20 µM. Besides, the dissociation constant (Kd) in [20] (setting [33]) is at least 20 µM; in assay [25], 303 nM; in assay [21] (setting [33]), at least 20 µM.

As to RTYSLLNRK, the Kd in assay [5] (setting [34]), in [6] (setting [34]), in assay [7] (setting [34]), in assay [8] (setting [34]), in assay [24] (setting [34]) and in assay [9] (setting [34]) was at least 20 µM each time. Also, the equilibrium dissociation constant (Kd) was 15.5 nM in assay [1] (setting [34]); at least 20 µM in assay [10] (setting [34]); at least 20 µM in assay [11] (setting [34]); at least 20 µM in [12] (setting [34]); at least 20 µM in assay [13] (setting [34]); at least 20 µM in assay [23] (setting [34]). In addition, the Kd was at least 20 µM in assay [14] (setting [34]); at least 20 µM in assay [15] (setting [34]); at least 20 µM in assay [22] (setting [34]); at least 20 µM in [16] (setting [34]); 144 nM in [3] (source organism: Reston ebolavirus - Reston); at least 20 µM in assay [17] (setting [34]). Moreover, the dissociation constant (Kd) in assay [18] (setting [34]), in assay [19] (setting [34]), in assay [20] (setting [34]) and in assay [21] (setting [34]) was at least 20 µM throughout.

Turning to GVALRSTYR, the Kd in assay [1] (source organism: Mycobacterium tuberculosis H37Ra) was 9.3 nM; in assay [3] (source organism: Mycobacterium tuberculosis) it was 1810 nM.

As usually defined, the Kd is a measure of binding affinity in units of concentration. A higher Kd goes with weaker binding.

These data come from the Immune Epitope Database (IEDB).
